Results from US20100015126A1, “Methods of Binding of Cross-Beta Structures By Chaperones” (priority 2006, published 2010).

Columns and labels:
[1] = target: Hypothetical protein/Heat shock 70 kDa protein 5 (glucose-regulated protein, 78 kDa = GRP78 = BiP = HSPA5), as identified in eluates (human) (UniProt P11021); experiment: BiP-Sepharose pull-down, RA patient IV synovial fluid (B6), MS of urea eluate; BiP may stem from the column
[2] = target: Hypothetical protein/Heat shock 70 kDa protein 5 (glucose-regulated protein, 78 kDa = GRP78 = BiP = HSPA5), as identified in eluates (human) (UniProt P11021); experiment: BiP-Sepharose pull-down, RA synovial fluid sample 1B, 1 M NaCl eluate, MS; BiP may stem from the column
[3] = target: Vitronectin precursor (Serum-spreading factor/S-protein) (human) (UniProt P04004); experiment: BiP-Sepharose pull-down, RA synovial fluid sample 5B, 1 M NaCl eluate, MS; may be indirect
Vitronectin precursor (Serum-spreading factor/S-protein) (human), sequence (P04004 20-478 limits assumed): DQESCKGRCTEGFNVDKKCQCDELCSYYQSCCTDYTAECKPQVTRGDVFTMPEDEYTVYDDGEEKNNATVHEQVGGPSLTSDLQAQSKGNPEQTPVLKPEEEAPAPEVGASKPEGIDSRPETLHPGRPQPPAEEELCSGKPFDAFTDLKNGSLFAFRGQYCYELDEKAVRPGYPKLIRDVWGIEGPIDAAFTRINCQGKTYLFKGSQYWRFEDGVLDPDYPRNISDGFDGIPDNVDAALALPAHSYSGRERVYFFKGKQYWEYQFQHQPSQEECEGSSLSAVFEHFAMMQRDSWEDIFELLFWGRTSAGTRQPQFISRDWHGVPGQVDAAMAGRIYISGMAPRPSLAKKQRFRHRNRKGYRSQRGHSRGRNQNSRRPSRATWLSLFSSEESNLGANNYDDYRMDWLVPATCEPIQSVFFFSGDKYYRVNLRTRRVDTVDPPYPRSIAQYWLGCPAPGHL

[4] = target: Serotransferrin precursor (human) (UniProt P02787); experiment: as above
[5] = target: 187 kDa protein/Complement component 3 (human) (UniProt P01024); experiment: as above
187 kDa protein/Complement component 3 (human), sequence (P01024 23-1663 limits assumed): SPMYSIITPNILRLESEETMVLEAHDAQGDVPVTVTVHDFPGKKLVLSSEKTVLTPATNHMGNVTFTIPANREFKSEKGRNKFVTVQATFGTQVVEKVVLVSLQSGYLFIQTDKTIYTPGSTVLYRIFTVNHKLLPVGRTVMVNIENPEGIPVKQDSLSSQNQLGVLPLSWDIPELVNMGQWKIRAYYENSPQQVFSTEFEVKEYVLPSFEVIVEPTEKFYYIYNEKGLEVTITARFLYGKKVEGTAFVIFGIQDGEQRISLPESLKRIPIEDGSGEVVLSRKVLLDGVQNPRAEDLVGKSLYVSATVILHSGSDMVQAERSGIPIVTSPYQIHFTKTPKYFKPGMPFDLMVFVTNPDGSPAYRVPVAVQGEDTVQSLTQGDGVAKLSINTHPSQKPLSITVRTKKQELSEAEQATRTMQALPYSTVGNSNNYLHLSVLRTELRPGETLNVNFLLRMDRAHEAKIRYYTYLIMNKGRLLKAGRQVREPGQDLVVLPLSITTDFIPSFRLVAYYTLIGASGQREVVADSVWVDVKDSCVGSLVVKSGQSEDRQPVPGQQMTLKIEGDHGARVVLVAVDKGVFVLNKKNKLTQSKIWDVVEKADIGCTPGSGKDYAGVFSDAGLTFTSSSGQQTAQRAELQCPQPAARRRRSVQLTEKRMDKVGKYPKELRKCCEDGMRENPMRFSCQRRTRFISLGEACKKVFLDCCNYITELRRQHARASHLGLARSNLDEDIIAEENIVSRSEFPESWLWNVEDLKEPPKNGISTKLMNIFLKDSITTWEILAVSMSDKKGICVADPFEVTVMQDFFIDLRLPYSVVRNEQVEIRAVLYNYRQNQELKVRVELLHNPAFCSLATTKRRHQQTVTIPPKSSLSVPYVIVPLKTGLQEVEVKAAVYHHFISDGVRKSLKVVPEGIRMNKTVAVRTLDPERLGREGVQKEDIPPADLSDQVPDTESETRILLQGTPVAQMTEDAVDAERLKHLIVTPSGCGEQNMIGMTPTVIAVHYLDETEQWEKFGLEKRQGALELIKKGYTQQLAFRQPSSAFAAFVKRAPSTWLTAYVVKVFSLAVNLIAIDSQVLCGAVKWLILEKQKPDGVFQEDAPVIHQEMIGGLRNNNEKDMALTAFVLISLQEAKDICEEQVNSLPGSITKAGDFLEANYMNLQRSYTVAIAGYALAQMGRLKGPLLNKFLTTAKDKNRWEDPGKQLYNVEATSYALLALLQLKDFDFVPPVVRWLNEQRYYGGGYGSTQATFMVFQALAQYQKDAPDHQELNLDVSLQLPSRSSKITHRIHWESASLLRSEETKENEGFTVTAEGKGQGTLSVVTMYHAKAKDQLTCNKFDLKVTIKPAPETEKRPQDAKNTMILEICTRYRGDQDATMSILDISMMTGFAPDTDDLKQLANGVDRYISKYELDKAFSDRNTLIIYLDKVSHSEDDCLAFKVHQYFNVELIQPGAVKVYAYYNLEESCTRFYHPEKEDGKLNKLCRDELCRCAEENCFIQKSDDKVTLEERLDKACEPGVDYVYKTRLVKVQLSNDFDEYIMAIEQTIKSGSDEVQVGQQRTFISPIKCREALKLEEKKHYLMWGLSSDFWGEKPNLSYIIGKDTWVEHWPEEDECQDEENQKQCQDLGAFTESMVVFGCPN

[6] = target: Heat shock 70 kDa protein 1L (human) (UniProt P34931); experiment: as above
Heat shock 70 kDa protein 1L (human), sequence (P34931 whole entry): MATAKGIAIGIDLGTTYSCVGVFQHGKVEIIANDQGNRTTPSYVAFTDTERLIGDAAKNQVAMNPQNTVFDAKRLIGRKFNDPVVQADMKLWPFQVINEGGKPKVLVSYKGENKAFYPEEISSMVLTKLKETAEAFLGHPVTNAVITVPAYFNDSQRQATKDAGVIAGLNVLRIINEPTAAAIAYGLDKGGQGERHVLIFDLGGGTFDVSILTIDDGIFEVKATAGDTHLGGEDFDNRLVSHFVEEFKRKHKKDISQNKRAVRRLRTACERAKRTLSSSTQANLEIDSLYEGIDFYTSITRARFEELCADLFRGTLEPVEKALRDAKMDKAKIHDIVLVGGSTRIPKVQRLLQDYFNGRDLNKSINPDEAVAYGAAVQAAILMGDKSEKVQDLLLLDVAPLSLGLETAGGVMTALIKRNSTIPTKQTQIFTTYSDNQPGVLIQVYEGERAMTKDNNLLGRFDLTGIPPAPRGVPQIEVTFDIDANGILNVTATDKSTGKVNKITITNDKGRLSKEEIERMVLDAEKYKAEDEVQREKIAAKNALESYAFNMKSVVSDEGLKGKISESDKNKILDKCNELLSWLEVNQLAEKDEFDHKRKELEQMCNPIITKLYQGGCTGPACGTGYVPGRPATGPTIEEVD

[7] = target: Histidine-rich glycoprotein precursor (human) (UniProt P04196); experiment: as above
Histidine-rich glycoprotein precursor (human), sequence (P04196 19-525 limits assumed): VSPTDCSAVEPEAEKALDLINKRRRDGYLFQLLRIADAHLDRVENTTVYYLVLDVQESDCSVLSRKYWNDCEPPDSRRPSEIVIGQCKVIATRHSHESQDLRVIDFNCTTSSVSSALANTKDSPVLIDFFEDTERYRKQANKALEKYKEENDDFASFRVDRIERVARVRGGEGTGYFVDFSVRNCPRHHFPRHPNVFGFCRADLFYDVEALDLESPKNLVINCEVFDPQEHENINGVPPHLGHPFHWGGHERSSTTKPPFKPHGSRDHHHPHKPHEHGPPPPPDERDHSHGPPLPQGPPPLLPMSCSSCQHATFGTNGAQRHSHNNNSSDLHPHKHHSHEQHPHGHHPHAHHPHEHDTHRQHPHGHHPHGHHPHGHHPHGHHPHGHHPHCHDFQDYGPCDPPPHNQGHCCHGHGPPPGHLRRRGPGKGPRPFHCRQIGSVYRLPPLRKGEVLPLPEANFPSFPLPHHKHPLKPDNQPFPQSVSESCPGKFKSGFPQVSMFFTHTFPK

[8] = target: 25 kDa protein/immunoglobulin lambda chain/rheumatoid factor G9 light chain (lambda V3)/IGLC1 protein (human) (UniProt P0CG04); experiment: as above
[9] = target: fibronectin 1 isoform 4 preproprotein (human) (UniProt P02751); experiment: as above
[10] = target: Clusterin precursor (human) (UniProt P10909); experiment: BiP-Sepharose pull-down, RA synovial fluid sample 2B, 1 M NaCl eluate, MS; may be indirect
Clusterin precursor (human), sequence (P10909 23-449 limits assumed, form in doubt): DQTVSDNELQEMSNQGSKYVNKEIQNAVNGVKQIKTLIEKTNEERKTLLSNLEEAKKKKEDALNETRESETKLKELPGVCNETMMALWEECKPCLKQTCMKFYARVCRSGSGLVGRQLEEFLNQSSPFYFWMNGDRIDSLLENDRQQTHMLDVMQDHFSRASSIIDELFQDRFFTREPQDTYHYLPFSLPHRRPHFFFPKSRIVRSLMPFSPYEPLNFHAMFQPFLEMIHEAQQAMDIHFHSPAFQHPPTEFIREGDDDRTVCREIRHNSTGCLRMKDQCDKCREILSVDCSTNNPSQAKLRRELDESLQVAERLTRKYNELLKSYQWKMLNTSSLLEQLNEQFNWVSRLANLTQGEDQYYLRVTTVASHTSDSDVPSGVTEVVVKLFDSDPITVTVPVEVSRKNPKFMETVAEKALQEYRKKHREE

[11] = target: IGHM protein, coagulation factor VII (serum prothrombin conversion accelerator) (human) (UniProt P08709); experiment: as above
[12] = target: Heat shock 70 kDa protein 1L (human) (UniProt P34931); experiment: as above
[13] = target: Histidine-rich glycoprotein precursor (human) (UniProt P04196); experiment: as above
[14] = target: Neutrophil defensin 1 precursor (human) (UniProt P59665); experiment: as above
Neutrophil defensin 1 precursor (human), sequence (P59665 65-94 limits assumed): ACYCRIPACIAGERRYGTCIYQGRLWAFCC

[15] = target: fibronectin 1 isoform 4 preproprotein (human) (UniProt P02751); experiment: as above
[16] = target: IGHG4 protein, immunoglobulin heavy constant gamma 4 (human) [IgG part: P01861]; experiment: as above
IGHG4 protein, immunoglobulin heavy constant gamma 4 (human) [IgG part: P01861], sequence (P01861 other isoform, or with tags, fused parts or gaps limits assumed): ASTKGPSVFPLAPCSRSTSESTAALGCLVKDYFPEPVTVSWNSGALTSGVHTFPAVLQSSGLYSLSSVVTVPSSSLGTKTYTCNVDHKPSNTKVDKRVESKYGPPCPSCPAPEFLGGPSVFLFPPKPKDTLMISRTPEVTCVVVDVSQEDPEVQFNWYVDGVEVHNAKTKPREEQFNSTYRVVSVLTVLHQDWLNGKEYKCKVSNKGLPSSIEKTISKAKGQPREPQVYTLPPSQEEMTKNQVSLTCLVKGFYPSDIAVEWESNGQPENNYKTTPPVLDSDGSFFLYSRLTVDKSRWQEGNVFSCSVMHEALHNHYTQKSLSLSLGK

[17] = target: Vitronectin precursor (Serum-spreading factor/S-protein) (human) (UniProt P04004); experiment: BiP-Sepharose pull-down, RA synovial fluid sample 6B, 1 M NaCl eluate, MS; may be indirect
[18] = target: Heat shock 70 kDa protein 1L (human) (UniProt P34931); experiment: as above
[19] = target: Apolipoprotein A-IV precursor (human) (UniProt P06727); experiment: BiP-Sepharose pull-down, RA synovial fluid sample 1B, 1 M NaCl eluate, MS; may be indirect
[20] = target: Clusterin precursor (human) (UniProt P10909); experiment: as above
[21] = target: 187 kDa protein/Complement component 3 (human) (UniProt P01024); experiment: as above
[22] = target: Heat shock 70 kDa protein 1L (human) (UniProt P34931); experiment: as above
[23] = target: Histidine-rich glycoprotein precursor (human) (UniProt P04196); experiment: as above
[24] = target: IGHM protein, immunoglobulin heavy chain mu (heavy chain disease protein) (human) (UniProt P01871); experiment: as above
[25] = target: Isoform H17 of Myeloperoxidase precursor (human) (UniProt P05164); experiment: as above
[26] = target: Hypothetical protein DKFZp686I04196 (Fragment)/Immunoglobulin heavy constant gamma 2 (G2m marker)/Ig gamma-2 chain C region (human) [IgG part: P01859]; experiment: as above
Hypothetical protein DKFZp686I04196 (Fragment)/Immunoglobulin heavy constant gamma 2 (G2m marker)/Ig gamma-2 chain C region (human) [IgG part: P01859], sequence (P01859 other isoform, or with tags, fused parts or gaps limits assumed): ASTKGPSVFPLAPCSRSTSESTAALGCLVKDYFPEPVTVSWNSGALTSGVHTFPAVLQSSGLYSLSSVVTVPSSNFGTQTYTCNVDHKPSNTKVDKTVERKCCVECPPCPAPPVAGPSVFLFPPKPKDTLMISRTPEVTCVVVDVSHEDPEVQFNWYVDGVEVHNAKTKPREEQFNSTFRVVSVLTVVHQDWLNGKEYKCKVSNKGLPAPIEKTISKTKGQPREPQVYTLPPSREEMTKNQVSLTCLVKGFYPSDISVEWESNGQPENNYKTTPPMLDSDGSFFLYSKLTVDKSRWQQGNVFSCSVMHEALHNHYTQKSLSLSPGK

[27] = target: Isoform 1 of Fibrinogen alpha chain precursor (human) (UniProt P02671); experiment: as above
[28] = target: IGHG4 protein, immunoglobulin heavy constant gamma 4 (human) [IgG part: P01861]; experiment: as above
[29] = target: Hypothetical protein/Heat shock 70 kDa protein 5 (glucose-regulated protein, 78 kDa = GRP78 = BiP = HSPA5), as identified in eluates (human) (UniProt P11021); experiment: BiP-Sepharose pull-down, RA synovial fluid sample 3B, 1 M NaCl eluate, MS; BiP may stem from the column

Hypothetical protein/Heat shock 70 kDa protein 5 (glucose-regulated protein, 78 kDa = GRP78 = BiP = HSPA5), as identified in eluates (human), sequence (P11021 19-654 limits assumed): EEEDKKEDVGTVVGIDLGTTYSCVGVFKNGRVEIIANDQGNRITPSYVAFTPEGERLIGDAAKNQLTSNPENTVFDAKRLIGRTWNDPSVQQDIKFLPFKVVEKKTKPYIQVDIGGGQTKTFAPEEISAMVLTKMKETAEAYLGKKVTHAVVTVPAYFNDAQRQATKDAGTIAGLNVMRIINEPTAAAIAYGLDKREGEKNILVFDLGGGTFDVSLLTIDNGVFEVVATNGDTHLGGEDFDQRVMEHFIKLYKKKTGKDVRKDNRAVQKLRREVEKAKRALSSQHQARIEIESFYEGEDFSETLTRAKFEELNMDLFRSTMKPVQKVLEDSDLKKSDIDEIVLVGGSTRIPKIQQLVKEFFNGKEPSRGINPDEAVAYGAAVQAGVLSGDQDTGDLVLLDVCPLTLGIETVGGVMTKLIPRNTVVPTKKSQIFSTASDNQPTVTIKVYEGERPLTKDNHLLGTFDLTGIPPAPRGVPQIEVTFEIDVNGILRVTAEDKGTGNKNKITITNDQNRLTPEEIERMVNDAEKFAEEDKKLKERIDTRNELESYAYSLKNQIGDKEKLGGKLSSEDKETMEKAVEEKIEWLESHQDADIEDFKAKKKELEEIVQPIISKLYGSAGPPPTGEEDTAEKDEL

recombinant human BiP with C-terminal linker, FLAG-tag and His-tag (BiP-FLAG-His) (from UniProt P11021 19-654)
# of peptides [1]: 31 peptides | # of unique peptides [2]: 21 peptides | # of unique peptides [3]: 2 peptides | # of unique peptides [4]: 1 peptides | # of unique peptides [5]: 1 peptides | # of unique peptides [6]: 1 peptides | # of unique peptides [7]: 1 peptides | # of unique peptides [8]: 1 peptides | # of unique peptides [9]: 2 peptides | # of unique peptides [10]: 1 peptides | # of unique peptides [11]: 1 peptides | # of unique peptides [12]: 1 peptides | # of unique peptides [13]: 1 peptides | # of unique peptides [14]: 1 peptides | # of unique peptides [15]: 2 peptides | # of unique peptides [16]: 1 peptides | # of unique peptides [17]: 1 peptides | # of unique peptides [18]: 1 peptides | # of unique peptides [19]: 3 peptides | # of unique peptides [20]: 1 peptides | # of unique peptides [21]: 2 peptides | # of unique peptides [22]: 1 peptides | # of unique peptides [23]: 2 peptides | # of unique peptides [24]: 3 peptides | # of unique peptides [25]: 1 peptides | # of unique peptides [26]: 1 peptides | # of unique peptides [27]: 3 peptides | # of unique peptides [28]: 4 peptides | # of unique peptides [29]: 19 peptides
